Assay results: publication PMC4592070

Target: ErbB1-mCitrine (UniProt P00533)
Test: FRET or BRET; confocal time-domain FLIM-FRET in live COS-7 cells at 37°C; donor ErbB1-mCitrine, acceptor an mCherry-labeled PTP1B chimera; cells starved overnight, recorded 2 min before and 14 min after EGF (100 ng/mL)

mCherry-PTP1B^D/A-ER (enzyme) was tested, and the average donor fluorescence lifetime (donor-only control 3.02 ns) was 2.89 ns.
mCherry-PTP1B^D/A-OMM (enzyme) was tested, and the average donor fluorescence lifetime (donor-only control 3.02 ns) was 2.96 ns.
